Changes are numbered by the printed parent chain.
How the values were obtained:
[1] = target: T1, mu-M-IL1RAP construct, positions S21-T367 (mouse, UniProt Q61730 21-367); assay: ELISA, purified mAb
T1 construct: also called mo-M-IL1RAP; mouse-M-IL1RAP
T1 sequence: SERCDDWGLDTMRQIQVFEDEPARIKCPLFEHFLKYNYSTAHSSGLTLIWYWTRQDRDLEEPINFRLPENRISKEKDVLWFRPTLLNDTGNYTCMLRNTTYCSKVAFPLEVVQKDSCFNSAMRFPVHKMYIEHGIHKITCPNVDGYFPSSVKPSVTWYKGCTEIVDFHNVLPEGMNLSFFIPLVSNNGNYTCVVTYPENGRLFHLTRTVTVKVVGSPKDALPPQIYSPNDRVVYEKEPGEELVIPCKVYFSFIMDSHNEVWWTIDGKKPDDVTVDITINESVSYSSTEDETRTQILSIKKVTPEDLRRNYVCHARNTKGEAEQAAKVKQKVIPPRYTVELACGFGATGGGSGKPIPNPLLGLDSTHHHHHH
Experimental: (§1) After removing the coating solution, unspecific binding was blocked by adding 200 μL of assay/blocking solution containing 1% bovine serum albumin (BSA) in phosphate buffered saline (PBS) pH 7.4 (ELISA diluent) and incubation at room temperature for one hour with agitation or overnight at 4° C. without agitation. Plates were then washed three times with 300 μL of PBS, 0.05% TWEEN®-20 (wash buffer). 100 μL of culture supernatant from individual hybridoma clones (or purified antibodies at the indicated concentration) was added to individual wells followed by incubation at room temperature for one hour with agitation. […] The plate was incubated at room temperature for one hour with agitation, washed six times with wash buffer and developed for 3-10 minutes by adding 50 μL/well of tetramethylbenzidine (TMB) microwell peroxidase substrate (Scytek Laboratories, Inc., Logan, UT, USA; catalogue number TM1999).

[2] = target: T2, cyno-M-IL1RAP construct, positions S21-T367 (cynomolgus monkey, UniProt P59822 21-367 (rhesus entry)); assay: ELISA, purified mAb
T2 construct: Biotinylated when captured on the Biacore chip; also called cy-M-IL1RAP
T2 sequence: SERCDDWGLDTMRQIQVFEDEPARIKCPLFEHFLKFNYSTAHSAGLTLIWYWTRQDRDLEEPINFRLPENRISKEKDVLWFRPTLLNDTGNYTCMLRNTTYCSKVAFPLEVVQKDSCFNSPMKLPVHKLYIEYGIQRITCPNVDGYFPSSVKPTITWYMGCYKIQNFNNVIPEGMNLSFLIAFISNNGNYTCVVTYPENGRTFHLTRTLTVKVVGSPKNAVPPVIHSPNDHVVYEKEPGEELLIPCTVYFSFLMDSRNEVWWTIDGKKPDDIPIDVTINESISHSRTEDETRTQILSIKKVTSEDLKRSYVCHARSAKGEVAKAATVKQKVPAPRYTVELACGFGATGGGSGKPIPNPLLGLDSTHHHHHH
Experimental: as §1

[3] = target: T3, hu-S-IL1RAP construct, positions S21-Q356 (soluble human IL1RAP) (human, UniProt Q9NPH3 21-350); assay: ELISA, purified mAb
T3 sequence: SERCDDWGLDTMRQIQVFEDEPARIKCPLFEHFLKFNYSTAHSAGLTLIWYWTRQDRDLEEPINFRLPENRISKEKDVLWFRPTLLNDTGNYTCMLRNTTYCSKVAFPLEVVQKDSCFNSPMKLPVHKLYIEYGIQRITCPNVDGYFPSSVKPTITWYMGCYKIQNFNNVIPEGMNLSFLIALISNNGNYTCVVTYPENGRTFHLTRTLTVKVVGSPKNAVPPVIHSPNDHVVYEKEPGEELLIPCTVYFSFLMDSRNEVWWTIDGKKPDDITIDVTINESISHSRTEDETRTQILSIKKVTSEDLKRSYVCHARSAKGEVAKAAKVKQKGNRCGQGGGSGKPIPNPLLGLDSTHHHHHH
Experimental: as §1

[4] = target: T4, hu-M-IL1RAP construct, positions S21-T367 (extracellular domain of the membrane form of human IL1RAP) (human, UniProt Q9NPH3 21-367); assay: ELISA, purified mAb
T4 construct: Biotinylated when captured on the Biacore chip
T4 sequence: T2 sequence with F183L, P273T, T326K
Experimental: as §1

[5] = target: T2, cyno-M-IL1RAP construct, positions …; assay: BLI (OCTET), mAb on AMC sensor, 25 C
Experimental: (§2) The BLI experimental format immobilizes the antibody on a biolayer surface with the IL1RAP antigen in solution. […] All samples were placed in black 96-well plates and the experiment was performed at 25° C. […] The biosensors were equilibrated in experimental buffer at 25° C. for ten minutes prior to starting the experiment.
(§3) The kinetics experiment was performed with the following steps, where the step name, solution and time are listed: Baseline (buffer—60 seconds), Loading (antibody—200 seconds), Baseline 2 (buffer—minimum 120 seconds), Association (analyte—200-300 seconds) and Dissociation (buffer—1000 seconds). The BLI signal resulting from analyte association and dissociation of the antigens from the immobilized antibody was analyzed using the OCTET® Data Analysis software (Pall ForteBio). First, a reference subtraction was performed on all recorded traces using the reference well (biosensor that underwent the same steps as experimental wells but no analyte for the Association step), then all the traces were aligned to the beginning of the Association step.

[6] = target: T4, hu-M-IL1RAP construct, positions …; assay: BLI (OCTET), mAb on AMC sensor, 25 C
Experimental: as §2, §3

[7] = target: T4, hu-M-IL1RAP construct, positions …; assay: ELISA, mAb at 10 nM
Experimental: as §1
(§4) Binding domain mapping: Binding domain mapping of the 15 purified antibodies was carried out using the above-described ELISA assay with the following IL1RAP polypeptide constructs coated at 1 μg/ml on the assay plates: hu-M-IL1RAP, hu-M-IL1RAP-D1, hu-M-IL1RAP-D1D2, and hu-M-IL1RAP-D3.

[8] = target: T5, hu-M-IL1RAP-D3 construct, positions K238-T367 (human); assay: ELISA, mAb at 10 nM
T5 chain: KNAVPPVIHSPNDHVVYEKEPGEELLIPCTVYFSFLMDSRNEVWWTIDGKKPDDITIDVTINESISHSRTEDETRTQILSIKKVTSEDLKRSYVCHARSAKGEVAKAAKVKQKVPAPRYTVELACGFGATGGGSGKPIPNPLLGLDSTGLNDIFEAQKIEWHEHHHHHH
Experimental: as §1, §4

[9] = target: T6, human IL1RAP (hu-IL1RAP) on human cells (human, UniProt Q9NPH3 21-570); assay: cell-based or functional assay
T6 sequence: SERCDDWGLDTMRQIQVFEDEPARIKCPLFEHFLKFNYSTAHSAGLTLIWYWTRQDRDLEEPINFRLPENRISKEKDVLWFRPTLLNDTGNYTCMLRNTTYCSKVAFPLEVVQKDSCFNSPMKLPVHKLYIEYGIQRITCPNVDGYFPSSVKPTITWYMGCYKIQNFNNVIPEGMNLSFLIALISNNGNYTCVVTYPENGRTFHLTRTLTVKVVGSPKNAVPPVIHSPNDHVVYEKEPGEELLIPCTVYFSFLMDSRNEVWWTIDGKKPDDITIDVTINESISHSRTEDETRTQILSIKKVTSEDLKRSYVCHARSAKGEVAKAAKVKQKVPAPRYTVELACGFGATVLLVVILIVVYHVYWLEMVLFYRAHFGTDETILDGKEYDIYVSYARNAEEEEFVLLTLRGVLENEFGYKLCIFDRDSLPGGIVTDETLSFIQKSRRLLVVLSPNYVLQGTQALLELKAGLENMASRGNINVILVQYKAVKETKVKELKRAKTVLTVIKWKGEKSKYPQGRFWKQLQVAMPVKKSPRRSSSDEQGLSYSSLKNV

[10] = target: T4, hu-M-IL1RAP construct, positions …; assay: ELISA, hybridoma supernatant
Experimental: as §1

[11] = target: T6, human IL1RAP (hu-IL1RAP) on human cells; assay: cell-based or functional assay; remark: listed apart in the source
[12] = target: T6, human IL1RAP (hu-IL1RAP) on human cells; assay: cell-based or functional assay; remark: listed apart in the source

B1: 11C5(Hy) (purified mAb from the 11C5 hybridoma) (antibody, V domains shown)
VH: EVQLVESGGGLVKPGGSLKLSCAASGFTFSNYAMSWVRQTPEKRLEWVATVTEGGDYNYCLDDVKGRFTISRDNANDNLYLQMSHLKSEDSARYYCARDRWPYFFDYWGQGTTLTVSS
VL: DIQMTQSPASLSVSVGETVTITCRASENIYSNLAWYQQKQGRSPQLLVYGAKNLADGVPSRFSGSGSGTQYSLNINSLQSEDFGTYYCQHFWTTPRTFGGGTKLEIK
notes: Mouse hybridoma mAb; also called 11C5(Hy) mAb; mAb 11C5(Hy)
- binding result [1]: no binding (tested: 20 nM (highest tested))
- EC50 [2]: 24 pM
- EC50 [3]: 29 pM
- EC50 [4]: 26 pM
- Kd [5]: 142 pM
- koff [5]: 5.74e-05 s⁻¹
- kon [5]: 413000 M⁻¹ s⁻¹
- Kd [6]: 219 pM
- koff [6]: 0.000103 s⁻¹
- kon [6]: 469000 M⁻¹ s⁻¹
- A450 [7]: 1.23 A450
- A450 [8]: 1.44 A450
- HEK-Blue SEAP, IL-1β, % inhibition (supernatant) [9]: 84%
- HEK-Blue SEAP, IL-33, % inhibition (supernatant) [9]: 65%
- A450 [10]: 1.44 A450
- HEK-Blue, IL-1α, IC50 [11]: 4700 pM
- HEK-Blue, IL-1β, IC50 [11]: 1000 pM
- HEK-Blue, IL-33, IC50 [11]: 3710 pM
- HEK-Blue, IL-36α, IC50 [11]: 2520 pM
- HEK-Blue, IL-36β, IC50 [11]: 981 pM
- HEK-Blue, IL-36γ, IC50 [11]: 665 pM
- HEK-Blue, IL-1β, % inhibition at 100 nM [12]: 99%
- HEK-Blue, IL-33, % inhibition at 100 nM [12]: 93%

B2: 13D8 (purified mAb from hybridoma 13D8) (antibody, V domains shown)
VH: EVQLVESGGGLVKPGGSLKLSCTASGFTFSNYAMSWVRQTPEKRLEWVATISDGGNYTYYPDNVKGRFTISRDIAKNNLYLQMSHLKSEDTAMYYCARDRWPYFFDFWGQGTTLTVSS
VL: B1 VL with E27D, Q38E, R42K, K52T, N74K, T85S, T97S, I106L
notes: Mouse hybridoma mAb
- binding result [1]: no binding (tested: 20 nM (highest tested))
- EC50 [2]: 32 pM
- EC50 [3]: 35 pM
- EC50 [4]: 39 pM
- A450 [7]: 1.12 A450
- A450 [8]: 1.46 A450
- HEK-Blue SEAP, IL-1β, % inhibition (supernatant) [9]: 48%
- HEK-Blue SEAP, IL-33, % inhibition (supernatant) [9]: 33%
- A450 [10]: 1.01 A450
- HEK-Blue, IL-1β, % inhibition at 100 nM [12]: 89%
- HEK-Blue, IL-33, % inhibition at 100 nM [12]: 69%

B3: 10A11 (purified mAb from hybridoma 10A11) (antibody, V domains shown)
VH: EVQLQQSGAELVKPGASVRLSCTSSGFNIKDYFMHWVKQRTEQGLEWVGRIDPEDGETQYAPNFQDKATITVDTSSNTVYLQLSSLTSEDTAVYYCFRPLYYGNSPWFAYWGQGTLVTVSP
VL: DIQMTQTTSSLSASLGDRVTISCRASQDISNYLNWYQQKPDGTVKLLIYYTSTLHSGVPSRFSGSGSGTDYSLTISNLEPEDIATYYCHQYSKFPPTFGSGTKLEIK
notes: Mouse hybridoma mAb
- binding result [1]: no binding (tested: 20 nM (highest tested))
- EC50 [2]: 32 pM
- EC50 [3]: 35 pM
- EC50 [4]: 39 pM
- A450 [7]: 1.18 A450
- A450 [8]: 1.4 A450
- HEK-Blue SEAP, IL-1β, % inhibition (supernatant) [9]: 53%
- HEK-Blue SEAP, IL-33, % inhibition (supernatant) [9]: 51%
- A450 [10]: 0.99 A450
- HEK-Blue, IL-1β, % inhibition at 100 nM [12]: 72%
- HEK-Blue, IL-33, % inhibition at 100 nM [12]: 56%

— patent US20260015426A1 (23ANDME, published 2026)
